Consider one molecule from doi:10.1101/2025.07.03.663104 (bioRxiv, 2025).

This assay concerns the target ThBP24k (recombinant, no tag named) (Magnaporthe oryzae, UniProt G4NG01). Put plainly: BLI. As to conditions: both partners purified.

B1: OsPR5-His (natural protein)
chain: ATFTITNRCSFTVWPAATPVGGGVQLSPGQTWTINVPAGTSSGRVWGRTGCSFDGSGRGSCATGDCAGALSCTLSGQKPLTLAEFTIGGSQDFYDLSVIDGYNVAMSFSCSSGVTVTCRDSRCPDAYLFPEDNTKTHACSGNSNYQVVFCP
A word on the Kd: it is the equilibrium constant for the complex coming apart. Turning to B1, the Kd stood at 2.41 nM.
